Source: EP2658867B1 (Avidbiotics Corp., dated 2018)
Positions count from the first letter of the chain named.

B1: soluble MICA generated by pKK41 (loop 5.2 in loop 1) (designed binder)
chain: HHHHHHEPHSLRYNLTVLSWDGSVQSGFLTEVHLDGQPFLRCDRQKCRAKPQGQWAEDVLGNKTWDRETRDLTGNGKDLRMTLAHIKDQKEGLHSLQEIRVCEIHEDNSTRSSQHFYYDGELFLSQNLETEEWTMPQSSRAQTLAMNVRNFLKEDAMKTKTHYHAMHADCLQELRRYLKSGVVLRRTVPPMVNVTRGDTFTQSVTCRASGFYPWNITLSWRQDGVSLSHDTQQWGDVLPDGNGTYQTWVATRICQGEEQRFTCYMEHSGNHSTHPVPSGK
B2: soluble MICA generated by pKK35 (His10sp in loop 3) (designed binder)
chain: EPHSLRYNLTVLSWDGSVQSGFLTEVHLDGQPFLRCDRQKCRAKPQGQWAEDVLGNKTWDRETRDLTGNGKDLRMTLAHIKDQKEGLHSLQEIRVCEIHEDNSTRSSQHFYYDGELFLSQNLETKEWTMPQSSRAQTLAMNVRNFLKEDAMKTKTHYHAMHADCLQELRRYLKSGVVLRRTVPPMVNVTRSEASEGNITVTCRASGFYPWNITLSWRQDGVSLSHDTQQWGDVLPDGNGTYQTWVATRISGGSGGGSHHHHHHHHHHSGGSGGGCYMEHSGNHSTHPVPSGK
B3: soluble MICA generated by pKK50 (extended loop 5.1sp in loop 3) (designed binder)
chain: B2 chain with H258V, H259T, H260R, H261G, H262D, H263T, H264F, H265T, H266Q, H267S
B4: soluble MICA generated by pKK49 (extended loop 3.3sp in loop 3) (designed binder)
chain: B2 chain with H258R, H259V, H260P, H261R, H262G, H263D, H264S, H265D, H266L, H267T
B5: soluble MICA generated by pKK48 (extended loop 3.2sp in loop 3) (designed binder)
chain: B2 chain with H258T, H259S, H260R, H261G, H262D, H264P, H265R, H266T, H267Q
B6: soluble MICA generated by pKK51 (extended loop 5.3sp in loop 3) (designed binder)
chain: B2 chain with H259L, H260A, H261R, H262G, H263D, H264D, H265L, H266T, H267Y
B7: soluble MICA generated by pKK38 (loop 3.3 in loop 1) (designed binder)
chain: HHHHHHEPHSLRYNLTVLSWDGSVQSGFLTEVHLDGQPFLRCDRQKCRAKPQGQWAEDVLGNKTWDRETRDLTGNGKDLRMTLAHIKDQKEGLHSLQEIRVCEIHEDNSTRSSQHFYYDGELFLSQNLETEEWTMPQSSRAQTLAMNVRNFLKEDAMKTKTHYHAMHADCLQELRRYLKSGVVLRRTVPPMVNVTRVPRGDSDLTVTCRASGFYPWNITLSWRQDGVSLSHDTQQWGDVLPDGNGTYQTWVATRICQGEEQRFTCYMEHSGNHSTHPVPSGK
B8: soluble MICA generated by pKK40 (loop 5.1 in loop 1) (designed binder)
chain: B7 chain with R196V, V197T, P198R, R199G, G200D, D201T, S202F, D203T, L204Q, T205S
B9: soluble MICA generated by pKK42 (loop 5.3 in loop 1) (designed binder)
chain: B7 chain with R196H, V197L, P198A, S202D, D203L, L204T, T205Y
B10: soluble MICA generated by pKK39 (loop 3.4 in loop 1) (designed binder)
chain: B7 chain with V197S, P198A, L204H, T205R
B11: soluble MICA generated by pKK37 (loop 3.2 in loop 1) (designed binder)
chain: HHHHHHEPHSLRYNLTVLSWDGSVQSGFLTEVHLDGQPFLRCDRQKCRAKPQGQWAEDVLGNKTWDRETRDLTGNGKDLRMTLAHIKDQKEGLHSLQEIRVCEIHEDNSTRSSQHFYYDGELFLSQNLETEEWTMPQSSRAQTLAMNVRNFLKEDAMKTKTHYHAMHADCLQELRRYLKSGVVLRRTVPPMVNVTRTSRGDHPRTQVTCRASGFYPWNITLSWRQDGVSLSHDTQQWGDVLPDGNGTYQTWVATRICQGEEQRFTCYMEHSGNHSTHPVPSGK
B12: soluble MICA generated by pKK44 (extended loop 3.2sp in loop 1) (designed binder)
chain: HHHHHHEPHSLRYNLTVLSWDGSVQSGFLTEVHLDGQPFLRCDRQKCRAKPQGQWAEDVLGNKTWDRETRDLTGNGKDLRMTLAHIKDQKEGLHSLQEIRVCEIHEDNSTRSSQHFYYDGELFLSQNLETEEWTMPQSSRAQTLAMNVRNFLKEDAMKTKTHYHAMHADCLQELRRYLKSGVVLRRTVPPMVNVTSGGSGGGSTSRGDHPRTQSGGSGGGVTCRASGFYPWNITLSWRQDGVSLSHDTQQWGDVLPDGNGTYQTWVATRICQGEEQRFTCYMEHSGNHSTHPVPSGK
B13: soluble MICA generated by pKK45 (extended loop 3.3sp in loop 1) (designed binder)
chain: B12 chain with T204R, S205V, R206P, G207R, D208G, H209D, P210S, R211D, T212L, Q213T
B14: soluble MICA generated by pKK36 (loop 3.1 in loop 1) (designed binder)
chain: HHHHHHEPHSLRYNLTVLSWDGSVQSGFLTEVHLDGQPFLRCDRQKCRAKPQGQWAEDVLGNKTWDRETRDLTGNGKDLRMTLAHIKDQKEGLHSLQEIRVCEIHEDNSTRSSQHFYYDGELFLSQNLETEEWTMPQSSRAQTLAMNVRNFLKEDAMKTKTHYHAMHADCLQELRRYLKSGVVLRRTVPPMVNVTSRGDHPRTQVTCRASGFYPWNITLSWRQDGVSLSHDTQQWGDVLPDGNGTYQTWVATRICQGEEQRFTCYMEHSGNHSTHPVPSGK
B15: M13 phage pKK91 displaying MICA α3 domain with His10sp in loop 3 (designed binder, not shown: large carriers)
chain: TVPPMVNVTRSEASEGNITVTCRASGFYPWNITLSWRQDGVSLSHDTQQWGDVLPDGNGTYQTWVATRISGGSGGGSHHHHHHHHHHSGGSGGGCYMEHSGNHSTHPVPSGK
B16: M13 phage pKK92 displaying MICA α3 domain with loop 3.1 in loop 1 (designed binder, not shown: large carriers)
chain: TVPPMVNVTSRGDHPRTQVTCRASGFYPWNITLSWRQDGVSLSHDTQQWGDVLPDGNGTYQTWVATRICQGEEQRFTCYMEHSGNHSTHPVPSGK
B17: M13 phage pKK93 displaying MICA α3 domain with loop 3.2 in loop 1 (designed binder, not shown: large carriers)
chain: TVPPMVNVTRTSRGDHPRTQVTCRASGFYPWNITLSWRQDGVSLSHDTQQWGDVLPDGNGTYQTWVATRICQGEEQRFTCYMEHSGNHSTHPVPSGK
B18: M13 phage pKK100 displaying MICA α3 domain with extended loop 3.2sp in loop 1 (designed binder, not shown: large carriers)
chain: TVPPMVNVTSGGSGGGSTSRGDHPRTQSGGSGGGVTCRASGFYPWNITLSWRQDGVSLSHDTQQWGDVLPDGNGTYQTWVATRICQGEEQRFTCYMEHSGNHSTHPVPSGK
B19: M13 phage pKK102 displaying MICA α3 domain with extended loop 5.1sp in loop 1 (designed binder, not shown: large carriers)
chain: B18 chain with T18V, S19T, H23T, P24F, R25T, T26Q, Q27S
B20: M13 phage pKK101 displaying MICA α3 domain with extended loop 3.3sp in loop 1 (designed binder, not shown: large carriers)
chain: B18 chain with T18R, S19V, R20P, G21R, D22G, H23D, P24S, R25D, T26L, Q27T
B21: M13 phage pKK97 displaying MICA α3 domain with loop 5.2 in loop 1 (designed binder, not shown: large carriers)
chain: TVPPMVNVTRGDTFTQSVTCRASGFYPWNITLSWRQDGVSLSHDTQQWGDVLPDGNGTYQTWVATRICQGEEQRFTCYMEHSGNHSTHPVPSGK
B22: M13 phage pKK94 displaying MICA α3 domain with loop 3.3 in loop 1 (designed binder, not shown: large carriers)
chain: TVPPMVNVTRVPRGDSDLTVTCRASGFYPWNITLSWRQDGVSLSHDTQQWGDVLPDGNGTYQTWVATRICQGEEQRFTCYMEHSGNHSTHPVPSGK
B23: M13 phage pKK95 displaying MICA α3 domain with loop 3.4 in loop 1 (designed binder, not shown: large carriers)
chain: B22 chain with V11S, P12A, L18H, T19R
B24: M13 phage pKK96 displaying MICA α3 domain with loop 5.1 in loop 1 (designed binder, not shown: large carriers)
chain: B22 chain with R10V, V11T, P12R, R13G, G14D, D15T, S16F, D17T, L18Q, T19S
B25: M13 phage pKK98 displaying MICA α3 domain with loop 5.3 in loop 1 (designed binder, not shown: large carriers)
chain: B22 chain with R10H, V11L, P12A, S16D, D17L, L18T, T19Y

target: T1, integrin αVβ5 (UniProt P06756 31-992; P18084 24-719); test: ELISA, integrin coated, anti-MICA-HRP; settings: not given
T1 construct: Coated on the ELISA plate
T1 sequence (P06756 31-992, chain 1 of 2): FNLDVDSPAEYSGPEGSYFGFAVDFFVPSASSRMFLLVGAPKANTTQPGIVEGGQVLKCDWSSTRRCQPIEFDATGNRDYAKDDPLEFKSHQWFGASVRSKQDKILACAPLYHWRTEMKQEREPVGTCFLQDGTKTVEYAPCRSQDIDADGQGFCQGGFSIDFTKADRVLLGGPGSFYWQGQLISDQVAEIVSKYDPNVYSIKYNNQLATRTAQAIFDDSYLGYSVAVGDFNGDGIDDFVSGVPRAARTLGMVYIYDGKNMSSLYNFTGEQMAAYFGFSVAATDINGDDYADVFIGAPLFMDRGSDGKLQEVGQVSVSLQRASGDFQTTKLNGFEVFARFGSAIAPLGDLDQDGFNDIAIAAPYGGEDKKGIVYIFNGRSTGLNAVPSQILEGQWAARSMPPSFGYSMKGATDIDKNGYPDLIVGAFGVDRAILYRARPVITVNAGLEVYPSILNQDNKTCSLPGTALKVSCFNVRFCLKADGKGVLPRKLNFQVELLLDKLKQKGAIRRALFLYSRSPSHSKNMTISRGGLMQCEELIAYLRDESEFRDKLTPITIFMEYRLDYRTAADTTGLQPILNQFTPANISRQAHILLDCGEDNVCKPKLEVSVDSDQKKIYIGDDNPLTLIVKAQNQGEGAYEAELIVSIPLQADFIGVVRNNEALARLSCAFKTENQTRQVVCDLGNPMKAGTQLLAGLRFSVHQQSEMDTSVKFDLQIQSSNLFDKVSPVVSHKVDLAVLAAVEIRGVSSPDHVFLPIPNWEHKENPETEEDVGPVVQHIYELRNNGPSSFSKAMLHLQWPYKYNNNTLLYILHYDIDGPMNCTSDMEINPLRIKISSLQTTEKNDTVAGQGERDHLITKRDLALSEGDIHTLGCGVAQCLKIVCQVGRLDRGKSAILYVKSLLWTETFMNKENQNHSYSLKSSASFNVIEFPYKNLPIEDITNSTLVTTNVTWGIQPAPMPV
T1 sequence (P18084 24-719, chain 2 of 2): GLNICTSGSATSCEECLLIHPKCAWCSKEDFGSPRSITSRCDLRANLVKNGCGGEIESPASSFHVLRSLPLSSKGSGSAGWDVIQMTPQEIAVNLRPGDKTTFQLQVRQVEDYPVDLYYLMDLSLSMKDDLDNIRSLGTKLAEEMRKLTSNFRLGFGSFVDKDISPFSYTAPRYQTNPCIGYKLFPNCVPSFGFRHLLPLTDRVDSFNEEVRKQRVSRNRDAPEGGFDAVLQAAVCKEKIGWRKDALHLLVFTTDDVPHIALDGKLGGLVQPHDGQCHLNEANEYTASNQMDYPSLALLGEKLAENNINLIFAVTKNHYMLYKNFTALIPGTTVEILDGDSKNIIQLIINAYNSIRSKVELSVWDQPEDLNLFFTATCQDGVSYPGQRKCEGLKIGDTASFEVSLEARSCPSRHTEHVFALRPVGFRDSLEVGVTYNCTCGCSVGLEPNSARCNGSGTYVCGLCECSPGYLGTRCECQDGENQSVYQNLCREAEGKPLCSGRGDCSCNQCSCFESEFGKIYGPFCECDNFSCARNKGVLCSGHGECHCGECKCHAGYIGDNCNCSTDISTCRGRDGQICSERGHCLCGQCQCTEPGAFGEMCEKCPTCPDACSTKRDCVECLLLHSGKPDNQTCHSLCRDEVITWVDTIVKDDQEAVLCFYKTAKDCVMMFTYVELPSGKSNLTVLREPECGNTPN

Going from B1 to B2, the signal falls from 0.65 OD to 0.392 OD.

Going from B3 to B4, the signal falls from 0.721 OD to 0.478 OD.

Compared with B5, B6 is higher in signal: 0.604 OD for the first, 1.05 OD for the second.

Compared with B7, B8 is higher in signal: 0.291 OD for the first, 0.675 OD for the second.

Compared with B9, B10 is lower in signal: 0.565 OD for the first, 0.528 OD for the second.

Compared with B11, B12 is lower in signal: 0.779 OD for the first, 0.46 OD for the second.

Compared with B13, B14 is higher in signal: 0.41 OD for the first, 0.526 OD for the second.

First: B1
Second: B2
The signal/ng of the first is higher: 22.4 signal/ng for the first, 2.31 signal/ng for the second.

First: B3
Second: B4
The signal/ng of the first is higher: 7.73 signal/ng for the first, 5.51 signal/ng for the second.

Compared with B5, B6 is higher in signal/ng: 7.68 signal/ng for the first, 10.9 signal/ng for the second.

Going from B7 to B8, the signal/ng falls from 30.7 signal/ng to 27.1 signal/ng.

Going from B9 to B10, the signal/ng falls from 22.8 signal/ng to 19.7 signal/ng.

Going from B11 to B12, the signal/ng falls from 22.4 signal/ng to 10 signal/ng.

Compared with B13, B14 is higher in signal/ng: 9.92 signal/ng for the first, 18.1 signal/ng for the second.

target: T2, integrin αVβ3 (UniProt P06756 31-992; P05106 27-718); test: ELISA, integrin coated, anti-MICA-HRP; settings: not given
T2 construct: Coated on the ELISA plate
T2 sequence (P06756 31-992, chain 1 of 2): as the sequence (P06756 31-992, chain 1 of 2) above
T2 sequence (P05106 27-718, chain 2 of 2): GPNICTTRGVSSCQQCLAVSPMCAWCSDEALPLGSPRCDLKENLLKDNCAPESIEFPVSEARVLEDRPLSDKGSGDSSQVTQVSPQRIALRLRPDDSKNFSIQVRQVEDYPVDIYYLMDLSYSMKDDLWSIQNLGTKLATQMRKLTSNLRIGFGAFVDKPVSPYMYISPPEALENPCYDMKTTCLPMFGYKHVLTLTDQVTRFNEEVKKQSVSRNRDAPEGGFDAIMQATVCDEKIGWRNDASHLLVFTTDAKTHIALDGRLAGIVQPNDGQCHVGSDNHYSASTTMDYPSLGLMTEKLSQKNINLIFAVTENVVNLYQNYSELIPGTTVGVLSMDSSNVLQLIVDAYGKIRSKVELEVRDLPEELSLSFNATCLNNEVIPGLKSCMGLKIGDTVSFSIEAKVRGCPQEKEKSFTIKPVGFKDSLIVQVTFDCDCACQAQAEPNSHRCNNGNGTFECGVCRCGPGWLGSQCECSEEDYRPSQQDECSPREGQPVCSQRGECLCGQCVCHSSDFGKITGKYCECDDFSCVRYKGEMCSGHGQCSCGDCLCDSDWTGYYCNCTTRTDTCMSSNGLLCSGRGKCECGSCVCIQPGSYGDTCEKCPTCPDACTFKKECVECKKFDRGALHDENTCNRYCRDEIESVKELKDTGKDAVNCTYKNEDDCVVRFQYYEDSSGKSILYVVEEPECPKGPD

Compared with B1, B2 is lower in signal: 0.516 OD for the first, 0.419 OD for the second.

First: B3
Second: B4
The signal of the first is higher: 0.546 OD for the first, 0.508 OD for the second.

Compared with B5, B6 is higher in signal: 0.478 OD for the first, 0.694 OD for the second.

Compared with B7, B8 is higher in signal: 0.291 OD for the first, 0.485 OD for the second.

Going from B9 to B10, the signal falls from 0.526 OD to 0.482 OD.

Compared with B11, B12 is lower in signal: 0.777 OD for the first, 0.41 OD for the second.

First: B13
Second: B14
The signal of the first is lower: 0.393 OD for the first, 0.55 OD for the second.

Compared with B1, B2 is lower in signal/ng: 17.7 signal/ng for the first, 2.46 signal/ng for the second.

First: B3
Second: B4
The signal/ng of the first is lower: 5.85 signal/ng for the first, 5.86 signal/ng for the second.

First: B5
Second: B6
The signal/ng of the first is lower: 6.08 signal/ng for the first, 7.2 signal/ng for the second.

First: B7
Second: B8
The signal/ng of the first is higher: 30.7 signal/ng for the first, 19.5 signal/ng for the second.

Compared with B9, B10 is lower in signal/ng: 21.2 signal/ng for the first, 18 signal/ng for the second.

Going from B11 to B12, the signal/ng falls from 22.4 signal/ng to 8.92 signal/ng.

Compared with B13, B14 is higher in signal/ng: 9.51 signal/ng for the first, 19 signal/ng for the second.

target: T1, integrin αVβ5; test: phage ELISA, integrin coated, anti-M13-HRP; settings: not given

Going from B15 to B16, the signal rises from 0.078 OD to 1.32 OD.

Going from B17 to B18, the signal falls from 0.291 OD to 0.186 OD.

First: B19
Second: B20
The signal of the first is lower: 0.771 OD for the first, 1.23 OD for the second.

Going from B21 to B22, the signal rises from 2.59 OD to 2.84 OD.

Going from B23 to B24, the signal rises from 0.232 OD to 2.42 OD.

For B25, the signal was 1.48 OD.

same assay, conditions: record 2

Compared with B17, B19 is higher in signal: 0.774 OD for the first, 1.5 OD for the second.

target: T2, integrin αVβ3; test: phage ELISA, integrin coated, anti-M13-HRP; settings: not given

First: B15
Second: B16
The signal of the first is lower: 0.303 OD for the first, 0.858 OD for the second.

First: B17
Second: B18
The signal of the first is higher: 0.284 OD for the first, 0.201 OD for the second.

Going from B19 to B20, the signal rises from 1.02 OD to 1.49 OD.

Going from B21 to B22, the signal falls from 1.55 OD to 1.07 OD.

Compared with B23, B24 is higher in signal: 0.345 OD for the first, 1.64 OD for the second.

In the case of B25, the signal is reported as 1.22 OD.

same assay, conditions: record 2

Going from B17 to B19, the signal rises from 0.616 OD to 1.45 OD.
